Tests used:
[1] = target: FcRn-p3 (human FcRn fused to the amino terminal part of the bacteriophage p3 protein and the CVDE protein) (human) (UniProt P55899); experiment: ELISA; phage-ELISA at pH 6.0: FcRn-p3 coated on Maxisorp plates (0.25 μg/well); phage-Fc supernatants diluted 1/2 and 1/4 in P6 (100 mM sodium phosphate, 50 mM NaCl, pH 6.0) with 5% skimmed milk and 0.1% Tween-20; 2 h at 37°C; bound phages detected with HRP anti-M13 antibody; results as ratios of signals
[2] = target: human FcγRIIIA-V158 (human); experiment: ELISA; C1q (0.5 μg/well) or FcγRIIIA-V158 (0.1 μg/well) coated on Maxisorp plates, FcγRIIA-R131 (0.1 μg/well) or FcγRIIB (0.4 μg/well) on nickel chelate plates; IgG in HEK293-F supernatants aggregated with HRP F(ab')2 goat anti-human F(ab')2, 0.5 μg/ml (0.25 μg/ml for FcγRIIIA-V158) in PBS, 1 h at 30°C; results as ratio variant/WT
human FcγRIIB (human) = human FcγRIIB (human) (UniProt P31994); experiment: as above
Chain of UniProt P31994 (P31994 43-217): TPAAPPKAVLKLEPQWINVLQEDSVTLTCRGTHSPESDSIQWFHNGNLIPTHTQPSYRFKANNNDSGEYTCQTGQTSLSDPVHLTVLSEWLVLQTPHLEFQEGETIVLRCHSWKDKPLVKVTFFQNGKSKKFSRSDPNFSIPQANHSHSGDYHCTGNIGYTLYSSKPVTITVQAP

human complement C1q = experiment: as above
[3] = target: human FcγRIIA-R131 (human); experiment: as above
[4] = target: FcRn-p3 (human FcRn fused to the amino terminal part of the bacteriophage p3 protein and the CVDE protein) (human) (UniProt P55899); experiment: ELISA; FcRn-p3 (0.1 μg/well) coated on Maxisorp plates in P6 (pH 6.0); IgG in HEK293-F supernatants aggregated with HRP F(ab')2 goat anti-human F(ab')2, diluted in P6 to 0.0375 μg/ml, 1 h at 30°C; results as ratio variant/WT
[5] = target: soluble human FcRn (human) (UniProt P55899); experiment: SPR; BIAcore X100, CM5 chip, recombinant human FcRn immobilised; IgG 1-200 nM flowed at 10 μl/min, 25°C, 50 mM sodium phosphate pH 6.0, 150 mM NaCl, 0.02% NaN3, 0.01% Tween-20; steady-state affinity model

Substance	phage-ELISA ratio/Fc-WT [1]	ELISA ratio variant/WT [2]	ELISA ratio variant/WT (human FcγRIIB (human))	ELISA ratio variant/WT (human complement C1q)	ELISA ratio variant/WT [3]	ELISA ratio variant/WT [4]	Kd [5]
Fc variant Fc-YTE (phage-displayed Fc 226-447) (domain or fragment)	3.5						
anti-CD20 IgG1 variant IgG-YTE (produced in HEK293-F cells) (antibody)		0.27	0.42	0.64	0.27	2.06	
anti-CD20 IgG1 IgG-WT (produced in YB2/0 cells) (antibody)							101 nM
Fc variant Fc-QL (phage-displayed Fc 226-447) (domain or fragment)	3.2						
anti-CD20 IgG1 variant IgG-QL (produced in HEK293-F cells) (antibody)		0.59	0.95	2.47	0.99	2.39	
anti-CD20 IgG1 variant IgG-LS (produced in HEK293-F cells) (antibody)		1.3	0.97	2.39	2.52	4.46	
